Reference: US9085636B2, “CETP fragments” (AFFIRIS AG, priority 2011, dated 2015)
No end group written: not given here.

Columns and labels:
[1] = test system: respective peptides coupled to bovine serum albumin (BSA); assay: Peptide ELISA: anti-peptide titers of sera from vaccinated mice; type: in vivo; conditions: median values (n = 5); Balb/c mice s.c. three times 15 μg net peptide coupled to KLH, Alum; titre = serum dilution at 50% of ODmax
Method: (§1) The peptides were conjugated via the heterobifunctional linker GMBS (4-Maleimidobutyric acid N-hydroxysuccinimide ester) to KLH (Keyhole Limpet Hemocyanin).
(§2) 15 μg of the peptides were suspended with aluminum hydroxide (end concentration of aluminum hydroxide was 0.2%). As buffer mannitol/phosphate was used.
(§3) 5 Balb/c mice were subcutaneously immunized. Mice had access to food and water ad libitum and were kept under a 12 h light/dark cycle. Age of mice at the beginning of experiments was usually 8 to 10 weeks.
(§4) Mice were injected three times in 2 week intervals with 15 μg of net peptide coupled to KLH and adsorbed to Alum as adjuvant in a volume of 1 ml in total via the s.c. route.
(§5) Blood was taken approximately 2 weeks after the final injection.
(§6) To determine the immunogenicity of the vaccines, 96-well Nunc-Maxisorb plates were coated with 1 μM of the respective peptides coupled to bovine serum albumin (BSA) in 0.1 M NaHCO3, pH 9.2-9.4. An irrelevant peptide was used as negative control. KLH was included as positive control and coated at a concentration of 1 μg/ml. Unspecific binding was blocked by incubation with blocking buffer (5% BSA in PBS). Appropriate serum dilutions were added to the wells, serially diluted 1:2 fold and incubated for approximately 1 hour at 37° C. On every ELISA plate a standard serum was included as internal control. Bound antibodies were detected by incubation with biotinylated goat anti-mouse IgG, followed by horseradish peroxidase coupled to Streptavidin. As substrate ABTS was added and the optical density (OD) at 405 nm was measured in a Microwell plate-reader. The titres were defined as the dilution of the serum where 50% of the ODmax in the assay are reached.

[2] = molecular target: T1, recombinantly expressed human CETP N-terminally fused to GST (GST-CETP) (Homo sapiens, UniProt P11597); assay: Protein ELISA: anti-protein titers of sera from vaccinated mice; type: in vivo, Balb/c mice; conditions: for anti-protein titers: median values (n = 5), Balb/c mice s.c. three times 15 μg net peptide coupled to KLH, Alum, GST-CETP ELISA, titre = serum dilution at 50% of ODmax
T1 construct: not only antibodies directed to the peptide itself but also to the mature CETP protein; GST (N); made in house
T1 sequence (P11597 18-493): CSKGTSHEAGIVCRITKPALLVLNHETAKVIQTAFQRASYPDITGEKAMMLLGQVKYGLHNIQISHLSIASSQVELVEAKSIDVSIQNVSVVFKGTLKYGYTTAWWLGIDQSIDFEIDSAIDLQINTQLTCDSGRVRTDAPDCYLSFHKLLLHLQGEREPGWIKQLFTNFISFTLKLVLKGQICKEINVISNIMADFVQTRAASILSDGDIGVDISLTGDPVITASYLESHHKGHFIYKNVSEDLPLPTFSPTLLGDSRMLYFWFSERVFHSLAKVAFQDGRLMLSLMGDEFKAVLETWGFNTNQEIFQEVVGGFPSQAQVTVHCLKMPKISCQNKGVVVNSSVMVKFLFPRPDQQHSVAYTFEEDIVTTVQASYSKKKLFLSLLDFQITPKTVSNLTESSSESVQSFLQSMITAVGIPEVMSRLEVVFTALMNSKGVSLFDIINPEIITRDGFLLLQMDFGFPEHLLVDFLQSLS
Method: as §1, §2, §3, §4, §5, §6
The antibodies induced by the vaccination were tested for their ability to bind to recombinantly expressed human CETP N-terminally fused to GST (“GST-CETP”) using the protocol described under “peptide ELISA”.

[3] = molecular target: T2, CETP activity of human serum (Homo sapiens, UniProt P11597); assay: CETP activity inhibition assay (Roar kit) with sera from vaccinated mice; type: biochemical; conditions: n=5 mice per group; human serum as CETP source mixed with same amount of serum from vaccinated mice
T2 construct: Human serum was used as CETP source; from tissue; host or cells: human serum
T2 sequence (P11597 18-493): T1 sequence (P11597 18-493)
Method: as §3, §4, §5
CETP activity was determined with the Roar CETP activity assay kit (RB-CETP; Roar Biomedical) by measuring the transfer of a fluorescently labeled substrate according to the protocol provided by the manufacturer. […] Human serum was used as CETP source and was mixed with the same amount of serum from vaccinated mice together with donor and acceptor particles (components of the CETP activity assay kit).
Mouse sera containing CETP-inhibiting antibodies lead to a decrease of the signal in this assay. Sera from mice injected with irrelevant peptide served as negative control.

With 20 (TTAWWLGI) [compound 20] the anti-peptide titers [1] was 124,000 and the anti-protein titers [2] was 300.
With 11 (WWLGIDQS) [compound 11] the anti-peptide titers [1] was 330,000, the anti-protein titers [2] was 1,100 and the “no. of mice with antibodies inhibiting CETP activity” value [3] was 5 of 5.
In the case of 5 (GFNTNQEIFQEVVGGFP) [compound 5], the anti-peptide titers [1] is reported as 100,000 and the anti-protein titers [2] is reported as 100.
In the case of 9 (TAWWLGIDQS) [compound 9], the anti-peptide titers [1] is reported as 173,000, the anti-protein titers [2] is reported as 2,200 and the “no. of mice with antibodies inhibiting CETP activity” value [3] is reported as 4 of 5.
In the case of 1 (YTTAWWLGIDQS) [compound 1], the anti-peptide titers [1] is reported as 70,000, the anti-protein titers [2] is reported as 800 and the “no. of mice with antibodies inhibiting CETP activity” value [3] is reported as 3 of 5.
8 (TTAWWLGIDQS) [compound 8] was tested, and the anti-peptide titers [1] was 89,000, the anti-protein titers [2] was 1,200 and the “no. of mice with antibodies inhibiting CETP activity” value [3] was 4 of 5.
16 (YTTAWWLG) [compound 16] was tested, and the anti-peptide titers [1] was 74,000 and the anti-protein titers [2] was 0.
19 (TTAWWLGID) [compound 19] was tested, and the anti-peptide titers [1] was 114,000, the anti-protein titers [2] was 1,300 and the “no. of mice with antibodies inhibiting CETP activity” value [3] was 3 of 5.
In the case of 12 (WLGIDQS) [compound 12], the anti-peptide titers [1] is reported as 153,000 and the anti-protein titers [2] is reported as 0.
In the case of 3 (LHLQGEREPGWIKQ) [compound 3], the anti-peptide titers [1] is reported as 97,000 and the anti-protein titers [2] is reported as 50.
With 13 (YTTAWWLGIDQ) [compound 13] the anti-peptide titers [1] was 143,000, the anti-protein titers [2] was 1,200 and the “no. of mice with antibodies inhibiting CETP activity” value [3] was 1 of 5.
In the case of 15 (YTTAWWLGI) [compound 15], the anti-peptide titers [1] is reported as 111,000, the anti-protein titers [2] is reported as 300 and the “no. of mice with antibodies inhibiting CETP activity” value [3] is reported as 0 of 5.
In the case of 14 (YTTAWWLGID) [compound 14], the anti-peptide titers [1] is reported as 630,000, the anti-protein titers [2] is reported as 600 and the “no. of mice with antibodies inhibiting CETP activity” value [3] is reported as 1 of 5.
“C-YTTAWWLGIDQS (CYTTAWWLGIDQS; also: conjugated to KLH carrier) [SEQ ID No. 1, CETP fragment AA101-112, N-terminal cysteine, conjugated to KLH]” was tested, and the “formation of antibodies directed to mature CETP protein (in words)” value ([2]; vaccinated Balb/c mice, protein ELISA) was “leads to the formation of not only antibodies directed to the peptide itself but also to the mature CETP protein”.
22 (FPRPDQQHSV) [compound 22] was tested, and the anti-peptide titers [1] was 229,000 and the anti-protein titers [2] was 0.
With 18 (TTAWWLGIDQ) [compound 18] the anti-peptide titers [1] was 216,000, the anti-protein titers [2] was 900 and the “no. of mice with antibodies inhibiting CETP activity” value [3] was 4 of 5.
With 6 (ESIQSFLQSMITA) [compound 6] the anti-peptide titers [1] was 69,000 and the anti-protein titers [2] was 0.
For 4 (DEFKAVLETWG) [compound 4], the anti-peptide titers [1] was 140,000 and the anti-protein titers [2] was 0.
With 17 (YTTAWWL) [compound 17] the anti-peptide titers [1] was 94,000 and the anti-protein titers [2] was 0.
7 (YGYTTAWWLGIDQSID) [compound 7] was tested, and the anti-peptide titers [1] was 33,000, the anti-protein titers [2] was 500 and the “no. of mice with antibodies inhibiting CETP activity” value [3] was 3 of 5.
With 2 (KAMMLLGQV) [compound 2] the anti-peptide titers [1] was 66,000 and the anti-protein titers [2] was 0.
In the case of 10 (AWWLGIDQS) [compound 10], the anti-peptide titers [1] is reported as 191,000, the anti-protein titers [2] is reported as 1,700 and the “no. of mice with antibodies inhibiting CETP activity” value [3] is reported as 5 of 5.
In the case of 21 (TAWWLGI) [compound 21], the anti-peptide titers [1] is reported as 99,000 and the anti-protein titers [2] is reported as 0.
